The values below come from US20210330742A1 (RUN X, published 2021).

This assay has as its target CDK4 (UniProt P11802 2-303). Kind of assay: co-IP and immunoblot, time course after serum stimulation. The procedure:
FIG. 2a is a diagram confirming that E2F1 was combined with RUNX3 by measuring the time-dependent formation of BRD2-RUNX3, E2F1-RUNX3, CDK4-RUNX3, Cyclin D1-RUNX3, HDAC4-RUNX3, p16INK4a-CDK4, p21-CDK4, Cyclin D1-CDK4 and HDAC4-CDK4 complexes by immunoprecipitation (IP) and immunoblotting (IB), and the time-dependent phosphorylation of pRB (at Ser-795) and ERK1/2 by immunoblotting (IB).
Transient transfection was performed in all cell lines using lipofectamine plus reagent and lipofectamine (Invitrogen). Cell lysates were incubated with an appropriate monoclonal or polyclonal antibody (2 μg of antibody/500 μg of lysate sample) at 4° C. for 3 hours, followed by incubation with protein G-Sepharose beads (Amersham Pharmacia Biotech, Piscataway, NJ, USA). For the detection of endogenous proteins at 4° C. for 1 hour, the lysate was incubated with an appropriate monoclonal or polyclonal antibody (1:1000-1:3000) at 4° C. for 6 to 12 hours, and then protein G-Sepharose beads (Amersham Pharmacia Biotech) were […] at 4° C. for 3 hours. The immune precipitate was […] on an SDS-polyacrylamide gel electrophoresis (SDS-PAGE) gel and transferred to a PVDF membrane (Millipore, Billerica, Mass., USA). […]
(In general: In western blotting, separated proteins are transferred to a membrane and probed.)

Chain of CDK4 (P11802 2-303 limits assumed): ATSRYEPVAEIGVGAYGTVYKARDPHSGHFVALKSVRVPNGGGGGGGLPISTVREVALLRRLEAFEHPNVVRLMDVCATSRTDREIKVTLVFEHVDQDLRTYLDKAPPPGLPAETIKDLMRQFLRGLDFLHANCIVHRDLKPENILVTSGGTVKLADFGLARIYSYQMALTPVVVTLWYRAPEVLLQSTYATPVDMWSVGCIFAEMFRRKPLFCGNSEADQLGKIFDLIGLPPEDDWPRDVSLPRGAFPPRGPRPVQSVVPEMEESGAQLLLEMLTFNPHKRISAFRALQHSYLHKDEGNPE

B1: p16INK4a (other, UniProt P42771 1-156, looked up)
chain: MEPAAGSSMEPSADWLATAAARGRVEEVRALLEAGALPNAPNSYGRRPIQVMMMGSARVAELLLLHGAEPNCADPATLTRPVHDAAREGFLDTLVVLHRAGARLDVRDAWGRLPVDLAEELGHRDVARYLRAAAGGTRGSNHARIDAAEGPSDIPD
On to B1, for which the binding result is “binds”.
